# Patent US11733246B2, “Compositions, imaging, and therapeutic methods targeting folate receptor 1 (FOLR1)” (Indi Molecular, Inc., priority 2020, dated 2023)
# Where two headings read alike, the source gives them in different places. Numbered stars: 1 amine (or outer) side, 2 acyl side, 3 side chain; on linkers, the order of the positions; unused ones are H or OH. Bridge positions count the residues as written; N and C are the ends. Square brackets hold non-standard residues; d marks the D form. Triazole bridges read from a SMILES are 1,4-linked. Peptide text beside a SMILES is read from it. * marks the point of attachment. DOTA = O=C(O)CN1CCN(CC(=O)O)CCN(CC(=O)*)CCN(CC(=O)O)CC1; Pteroyl = Nc1nc2ncc(CNc3ccc(C(=O)*)cc3)nc2c(=O)[nH]1; Butanoyl(4-(4-MePh)) = Cc1ccc(CCCC(=O)*)cc1; Lys(N3) = [N-]=[N+]=NCCCC[C@H](N)C(=O)O; γGlu = O=C(O)[C@H](CCC(=O)[*:2])N[*:1]; AEEEA = NCCOCCOCCOCC(=O)O; Pra = C#CC[C@H](N)C(=O)O
# Assays:
# [1] = Plasma protein binding (equilibrium dialysis), mouse; format: in vitro ADME, CD-1 mouse
# Procedure, shortened: (§1)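 Equilibrium dialysis across 12-14 kDa cellulose membranes; test articles at 2 μM in mouse or human plasma adjusted to pH 7.0-8.0, in triplicate. Dialysed 4 hours at 37° C. with slow shaking; both sides quantified by LC-MS/MS to give fraction bound.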
# [2] = Plasma protein binding (equilibrium dialysis), human; format: in vitro ADME
# Procedure, shortened: as §1
# human recombinant NEP = human recombinant NEP (Homo sapiens, UniProt P08473); format: biochemical
# Procedure, shortened: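 Peptide bearing GFK linker (10 μM) incubated with recombinant human NEP (10, 1, 0.1, 0.01 nM or none) at 37° C. for 1 h. Cleavage tracked by MALDI-MS, cleaved adduct identified by mass, and by HPLC as parent-peak depletion with new-peak appearance; non-cleavable PEG3 linker assayed for specificity.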
# [3] = mouse, plasma, Plasma Stability (t 1/2)
# Method: (§2) Plasma was thawed in a 37° C. water bath. Residual clots were removed via centrifugation at 4000 rpm for 5 minutes. The pH of the plasma was adjusted to 7.4 if required. Test articles were diluted to 100 μM by diluting a 1 mM working solution (in DMSO) with 45% methanol in water. To 98 μL of plasma was added 2 μL of the 100 μM solution, resulting in 2 μM final concentration of the test article. Samples were incubated at 37° C. in a water bath. At the indicated time points (0, 10, 30, 60, 120 minutes) 100 μL of 4% H3PO4 was added followed by 800 μL of stop solution (200 ng/mL tolbutamide and 200 ng/mL labetalol in 100% acetonitrile). The samples were centrifuged and the plasma protein-free supernatant (100 μL) was subjected to LC-MS/MS analysis.
# [4] = human, plasma, Plasma Stability (t 1/2)
# Method: as §2
# human recombinant NEP, sequence (P08473 whole entry): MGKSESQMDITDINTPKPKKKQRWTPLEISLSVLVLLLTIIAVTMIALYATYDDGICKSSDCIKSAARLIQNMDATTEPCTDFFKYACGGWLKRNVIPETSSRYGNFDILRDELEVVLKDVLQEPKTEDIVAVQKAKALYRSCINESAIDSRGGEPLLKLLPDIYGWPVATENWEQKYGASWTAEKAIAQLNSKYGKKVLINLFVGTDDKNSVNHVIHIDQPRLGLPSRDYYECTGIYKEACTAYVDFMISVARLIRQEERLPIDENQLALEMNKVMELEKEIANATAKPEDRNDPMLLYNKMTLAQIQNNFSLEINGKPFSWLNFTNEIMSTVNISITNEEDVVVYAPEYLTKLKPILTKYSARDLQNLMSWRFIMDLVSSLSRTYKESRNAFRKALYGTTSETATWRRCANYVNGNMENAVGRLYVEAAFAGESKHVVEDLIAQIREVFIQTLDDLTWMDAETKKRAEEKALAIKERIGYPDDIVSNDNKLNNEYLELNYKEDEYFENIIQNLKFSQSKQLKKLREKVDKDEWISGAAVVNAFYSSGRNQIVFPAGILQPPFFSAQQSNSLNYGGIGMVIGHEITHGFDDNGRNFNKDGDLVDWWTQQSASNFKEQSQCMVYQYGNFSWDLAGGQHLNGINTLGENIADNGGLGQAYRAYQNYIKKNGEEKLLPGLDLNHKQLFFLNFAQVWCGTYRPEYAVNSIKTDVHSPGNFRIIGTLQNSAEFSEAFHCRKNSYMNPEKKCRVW
smiles,measurement,setting,value
"Cc1ccc(CCCC(=O)NCCCC[C@H](NC(=O)COCCOCCOCCNC(=O)[C@@H]2CCCCn3cc(nn3)C[C@H](NC(=O)CC[C@H](NC(=O)c3ccc(NCc4cnc5nc(N)[nH]c(=O)c5n4)cc3)C(=O)O)C(=O)N[C@H](Cc3c[nH]cn3)C(=O)N[C@H](CO)C(=O)N[C@H](Cc3c[nH]cn3)C(=O)N[C@H]([C@H](C)O)C(=O)N[C@H](C)C(=O)N2)C(=O)N[C@@H](CCCCNC(=O)CN2CCN(CC(=O)O)CCN(CC(=O)O)CCN(CC(=O)O)CC2)C(N)=O)cc1 [compound #2809, Fol-hshta-PEG3-Lys(4-MPBA)-Lys(DOTA)] ({Pteroyl-γGlu}-[Pra][dH][dS][dH][dT][dA][Lys(N3)][AEEEA]K(Butanoyl(4-(4-MePh)))K(DOTA)-NH2; triazole 1-7)",recovery,[1],108%
same,fraction unbound,"[1]; mouse, plasma",0.0791
same,recovery,[2],85.8%
same,fraction unbound,"[2]; human, plasma",0.167
same,NEP-mediated cleavage (site / susceptibility),human recombinant NEP,unchanged
same,in vitro Assay Data (NEP assay),human recombinant NEP,resistant to NEP
same,half-life,[3],> 4.82 h
same,half-life,[4],> 4.82 h
